Laboratory results as given in US20110275559A1, “Long-Acting Y2 and/or Y4 Receptor Agonists” (Novo Nordisk A/S, priority 2008, published 2011).
*1 amine or outer side, *2 acyl side, *3 side chain or, on linkers, in order; H or OH if unused. Where a SMILES comes first, the peptide text is derived from it. Where no end group is shown, it is not given here. Side-chain parts run from the residue outwards. The star is where a group is joined. C20 diacid = O=C(O)CCCCCCCCCCCCCCCCCCC(=O)*; C18 diacid = O=C(O)CCCCCCCCCCCCCCCCC(=O)*; γGlu = O=C(O)[C@H](CCC(=O)[*:2])N[*:1]; Trx = NC[C@H]1CC[C@H](C(=O)O)CC1; AEEA = NCCOCCOCC(=O)O

T1: Y2 receptor (Homo sapiens, UniProt P49146)
T1 construct: host or cells: ACTOne HEK-293 cells
T1 sequence (P49146 1-381): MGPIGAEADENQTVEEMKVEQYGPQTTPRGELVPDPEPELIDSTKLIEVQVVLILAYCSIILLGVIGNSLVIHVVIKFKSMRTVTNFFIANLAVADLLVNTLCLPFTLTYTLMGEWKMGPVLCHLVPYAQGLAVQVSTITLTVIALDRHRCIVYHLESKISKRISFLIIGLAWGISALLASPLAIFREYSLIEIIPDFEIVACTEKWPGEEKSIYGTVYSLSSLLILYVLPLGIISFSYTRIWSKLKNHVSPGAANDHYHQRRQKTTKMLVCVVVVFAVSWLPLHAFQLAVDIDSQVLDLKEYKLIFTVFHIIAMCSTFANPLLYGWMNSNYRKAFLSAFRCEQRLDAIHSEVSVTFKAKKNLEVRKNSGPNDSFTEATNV

T2: Y2 receptor (UniProt P49146 1-381, limits assumed)
T2 sequence (looked up): T1 sequence (P49146 1-381)

B1: N-epsilon18-[2-(2-{2-[2-(2-{2-[(S)-4-Carboxy-4-({trans-4-[(19-carboxynonadecanoylamino)methyl]cyclohexanecarbonyl}amino)butyrylamino]-ethoxy}ethoxy)acetylamino] … (peptide)
peptide: PLEPVYPGDNATPEQLK([AEEA-AEEA-γGlu-Trx-C20 diacid])QYAADLRRYINLLTRPRY
modifications: ends and bridges not checked
B2: N-epsilon35-[2-(2-{2-[2-(2-{2-[(S)-4-Carboxy-4-({trans-4-[(19-carboxynonadecanoylamino)methyl]cyclohexanecarbonyl}amino)butyrylamino]-ethoxy}ethoxy)acetylamino] … (peptide)
peptide: PLEPVYPGDNATPEQLAQYAADLRRYINLLTRPK([AEEA-AEEA-γGlu-Trx-C20 diacid])Y
modifications: ends and bridges not checked
B3: N-epsilon13-[2-(2-{2-[2-(2-{2-[(S)-4-Carboxy-4-({trans-4-[(19-carboxynonadecanoylamino)methyl]cyclohexanecarbonyl}amino)butyrylamino]-ethoxy}ethoxy)acetylamino] … (peptide)
peptide: APLEPVYPGNDAK([AEEA-AEEA-γGlu-Trx-C20 diacid])PEQLAQYAADLRRYINLVTRPRY
modifications: ends and bridges not checked
B4: N-alfa-[2-(2-{2-[2-(2-{2-[(S)-4-Carboxy-4-({trans-4-[(19-carboxynonadecanoylamino)methyl]cyclohexanecarbonyl}amino)butyrylamino]-ethoxy}ethoxy)acetylamino]ethox … (peptide)
peptide: APLEPVYPGDNATPEQLAQYAADLRRYINLLTRPRY
modifications: not fully specified (N-terminus); printed as N-alfa-[2-(2-{2-[2-(2-{2-[(S)-4-Carboxy-4-({trans-4-[(19-carboxynonadecanoylamino)methyl]cyclohexanecarbonyl}amino)butyrylamino]-ethoxy}ethoxy)acetylamino]ethoxy}ethoxy)acetyl][Leu17,Leu30]hPP1-36; ends and bridges not checked
B5: N-epsilon26-[2-(2-{2-[2-(2-{2-[(S)-4-Carboxy-4-({trans-4-[(19-carboxynonadecanoylamino)methyl]cyclohexanecarbonyl}amino)butyrylamino]-ethoxy}ethoxy)acetylamino] … (peptide)
peptide: PLEPVYPGDNATPEQLAQYAADLRK([AEEA-AEEA-γGlu-Trx-C20 diacid])YINLLTRPRY
modifications: ends and bridges not checked
B6: N-epsilon11-[2-(2-{2-[2-(2-{2-[(S)-4-Carboxy-4-(17-carboxyheptadecanoylamino)butyrylamino]ethoxy}ethoxy)acetylamino]-ethoxy}ethoxy)acetyl][Lys11,Leu17,Leu30]hPP … (peptide)
peptide: PLEPVYPGDK([AEEA-AEEA-γGlu-C18 diacid])ATPEQLAQYAADLRRYINLLTRPRY
modifications: ends and bridges not checked
B7: N-epsilon13-[2-(2-{2-[2-(2-{2-[(S)-4-Carboxy-4-({trans-4-[(19-carboxynonadecanoylamino)methyl]cyclohexanecarbonyl}amino)butyrylamino]-ethoxy}ethoxy)acetylamino] … (peptide)
peptide: APLEPVYPGDNAK([AEEA-AEEA-γGlu-Trx-C20 diacid])PEQLAQYAADLRRYINVLTRQRY
modifications: ends and bridges not checked
B8: N-epsilon13-[2-(2-{2-[2-(2-{2-[(S)-4-Carboxy-4-({trans-4-[(19-carboxynonadecanoylamino)methyl]cyclohexanecarbonyl}amino)butyrylamino]-ethoxy}ethoxy)acetylamino] … (peptide)
peptide: APLEPVYPGDNAK([AEEA-AEEA-γGlu-Trx-C20 diacid])PEQLAQYAADLRRYIQLLTRPRY
modifications: ends and bridges not checked
B9: N-epsilon11-[2-(2-{2-[2-(2-{2-[(S)-4-Carboxy-4-({trans-4-[(19-carboxynonadecanoylamino)methyl]cyclohexanecarbonyl}amino)butyrylamino]-ethoxy}ethoxy)acetylamino] … (peptide)
peptide: PLEPVYPGDK([AEEA-AEEA-γGlu-Trx-C20 diacid])ATPEQLAQYAADLRRYINLLTRPRY
modifications: ends and bridges not checked
B10: N-epsilon33-[2-(2-{2-[2-(2-{2-[(S)-4-Carboxy-4-({trans-4-[(19-carboxynonadecanoylamino)methyl]cyclohexanecarbonyl}amino)butyrylamino]-ethoxy}ethoxy)acetylamino] … (peptide)
peptide: PLEPVYPGDNATPEQLAQYAADLRRYINLLTK([AEEA-AEEA-γGlu-Trx-C20 diacid])PRY
modifications: ends and bridges not checked
B11: N-epsilon13-[2-(2-{2-[2-(2-{2-[(S)-4-Carboxy-4-({trans-4-[(19-carboxynonadecanoylamino)methyl]cyclohexanecarbonyl}amino)butyrylamino]-ethoxy}ethoxy)acetylamino] … (peptide)
peptide: APLEPVYPGDNAK([AEEA-AEEA-γGlu-Trx-C20 diacid])PEQLAQYAADLRRYLNVLTRQRY
modifications: ends and bridges not checked
B12: N-epsilon13-[2-(2-{2-[2-(2-{2-[(S)-4-Carboxy-4-({trans-4-[(19)-carboxynonadecanoylamino)methyl]cyclohexanecarbonyl}amino)butyrylamino]-ethoxy}ethoxy)acetylamino … (peptide)
peptide: APLEPVYPGDNAK([AEEA-AEEA-γGlu-Trx-C20 diacid])PEQLAQYAADLRRYINLLTRQRY
modifications: ends and bridges not checked
B13: [Leu17,Leu30]hPP2-36 (peptide)
peptide: PLEPVYPGDNATPEQLAQYAADLRRYINLLTRPRY
modifications: ends and bridges not checked
B14: N-epsilon18-[2-(2-{2-[2-(2-{2-[(S)-4-Carboxy-4-(17-carboxyheptadecanoylamino)butyrylamino]ethoxy}ethoxy)acetylamino]-ethoxy}ethoxy)acetyl][Lys18,Leu17,Leu30]hPP … (peptide)
peptide: PLEPVYPGDNATPEQLK([AEEA-AEEA-γGlu-C18 diacid])QYAADLRRYINLLTRPRY
modifications: ends and bridges not checked
B15: N-epsilon13-[2-(2-{2-[2-(2-{2-[(S)-4-Carboxy-4-({trans-4-[(19-carboxynonadecanoylamino)methyl]cyclohexanecarbonyl}amino)butyrylamino]-ethoxy}ethoxy)acetylamino] … (peptide)
peptide: APLEPVYPGDNAK([AEEA-AEEA-γGlu-Trx-C20 diacid])PEQLAQYAADLRRYVNLLTRQRY
modifications: ends and bridges not checked
B16: N-epsilon26-[2-(2-{2-[2-(2-{2-[(S)-4-Carboxy-4-(17-carboxyheptadecanoylamino)butyrylamino]ethoxy}ethoxy)acetylamino]-ethoxy}ethoxy)acetyl][Leu17,Lys26,Leu30]hPP … (peptide)
peptide: PLEPVYPGDNATPEQLAQYAADLRK([AEEA-AEEA-γGlu-C18 diacid])YINLLTRPRY
modifications: ends and bridges not checked
B17: N-epsilon25-[2-(2-{2-[2-(2-{2-[(S)-4-Carboxy-4-({trans-4-[(19-carboxynonadecanoylamino)methyl]cyclohexanecarbonyl}amino)butyrylamino]-ethoxy}ethoxy)acetylamino] … (peptide)
peptide: PLEPVYPGDNATPEQLAQYAADLK([AEEA-AEEA-γGlu-Trx-C20 diacid])RYINLLTRPRY
modifications: ends and bridges not checked
B18: N-epsilon33-[2-(2-{2-[2-(2-{2-[(S)-4-Carboxy-4-(17-carboxyheptadecanoylamino)butyrylamino]ethoxy}ethoxy)acetylamino]-ethoxy}ethoxy)acetyl][Leu17,Leu30,Lys33]hPP … (peptide)
peptide: PLEPVYPGDNATPEQLAQYAADLRRYINLLTK([AEEA-AEEA-γGlu-C18 diacid])PRY
modifications: ends and bridges not checked
B19: N-epsilon29-[2-(2-{2-[2-(2-{2-[(S)-4-Carboxy-4-({trans-4-[(19-carboxynonadecanoylamino)methyl]cyclohexanecarbonyl}amino)butyrylamino]-ethoxy}ethoxy)acetylamino] … (peptide)
peptide: PLEPVYPGDNATPEQLAQYAADLRRYIK([AEEA-AEEA-γGlu-Trx-C20 diacid])LLTRPRY
modifications: ends and bridges not checked
B20: N-epsilon35-[2-(2-{2-[2-(2-{2-[(S)-4-Carboxy-4-(17-carboxyheptadecanoylamino)butyrylamino]ethoxy}ethoxy)acetylamino]-ethoxy}ethoxy)acetyl][Leu17,Leu30,Lys35]hPP … (peptide)
peptide: PLEPVYPGDNATPEQLAQYAADLRRYINLLTRPK([AEEA-AEEA-γGlu-C18 diacid])Y
modifications: ends and bridges not checked

Tests used:
Y2 receptor [1] = biological target: T1, Y2 receptor; assay: Y2 receptor ACTOne based FLIPR assay (cAMP biosensor); type: cell-based
Excerpt: ACTOne™ is an easily scaleable cAMP biosensor HTS platform for measurement of Gs and Gi coupled 7™ receptor signalling from BD Biosciences (San Jose, Calif.). The cells express a biosensor developed around a modified rat olfactory cyclic nucleotide gated (CNG) calcium channel—a fairly non-discriminatory ion channel that responds to cAMP and cGMP. The CNG has been engineered to be cAMP selective and thus function as a cAMP responsive biosensor that signals through calcium or membrane potential responsive dyes. Y2 or Y4 receptor expressing ACTOne HEK-293 cells are obtained from BD Biosciences. The cells are loaded with a calcium responsive dye that only distributes in the cytoplasm. Probenecid, an inhibitor of the organic anion transporter is added to prevent the dye from leaving the cell. A phosphodiesterase inhibitor is added to prevent formatted cAMP from being degraded. Isoproterenol (an β1/β2 agonist) is added to activate the adenylate cyclase. When an Y2 or Y4 receptor agonist is added, the adenylate cyclase is inactivated. The decreased calcium concentration in the cytoplasm is then detected as an increase in fluorescence. Together with the test substance, Isoproterenol at a concentration matching EC80, is added to all wells. • The cells are plated out in Greiner 384-well plates. […] The plates are covered with tinfoil to avoid light (the dye can be excited by the daylight, which results in higher baseline and variation). • The FLIPR (FLIPRtetra from Molecular Devices, CA, USA) adds 1 μl sample and 1 μl isoproterenol (0.05 μM final concentration) at the same time. • The fluorescence signal from the wells is measured 330 seconds after sample addition on the FLIPR.

Y2 receptor [2] = biological target: T2, Y2 receptor; assay: cell-based or functional assay
Y4 receptor = Y4 receptor (UniProt P50391 1-375, limits assumed); assay: cell-based or functional assay
Sequence of Y4 receptor (P50391 whole entry): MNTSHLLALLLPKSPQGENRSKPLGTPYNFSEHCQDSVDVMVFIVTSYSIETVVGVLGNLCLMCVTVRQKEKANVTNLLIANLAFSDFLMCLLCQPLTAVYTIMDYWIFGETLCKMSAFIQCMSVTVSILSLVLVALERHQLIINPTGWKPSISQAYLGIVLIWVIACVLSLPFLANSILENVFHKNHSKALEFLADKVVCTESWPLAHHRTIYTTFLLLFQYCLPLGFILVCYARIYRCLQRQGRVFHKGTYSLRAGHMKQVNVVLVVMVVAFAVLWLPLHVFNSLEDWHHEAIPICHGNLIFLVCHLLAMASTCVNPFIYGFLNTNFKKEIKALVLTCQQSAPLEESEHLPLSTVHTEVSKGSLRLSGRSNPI

Row | Molecule | EC50 (Y2 receptor [1]) [nM] | Y2 cAMP EC50 (Y2 receptor [2]) [nM] | Y4 cAMP EC50 (Y4 receptor) [nM]
1 | CC[C@H](C)[C@H](NC(=O)[C@H](Cc1ccc(O)cc1)NC(=O)[C@H](CCCNC(=N)N)NC(=O)[C@H](CCCNC(=N)N)NC(=O)[C@H](CC(C)C)NC(=O)[C@H](CC(=O)O)NC(=O)[C@H](C)NC(=O)[C@H](C)NC(=O)[C@H](Cc1ccc(O)cc1)NC(=O)[C@H](CCC(N)=O)NC(=O)[C@H](C)NC(=O)[C@H](CC(C)C)NC(=O)[C@H](CCC(N)=O)NC(=O)[C@H](CCC(=O)O)NC(=O)[C@@H]1CCCN1C(=O)[C@H](CCCCNC(=O)COCCOCCNC(=O)COCCOCCNC(=O)CC[C@H](NC(=O)[C@H]1CC[C@H](CNC(=O)CCCCCCCCCCCCCCCCCCC(=O)O)CC1)C(=O)O)NC(=O)[C@H](C)NC(=O)[C@H](CC(N)=O)NC(=O)[C@H](CC(=O)O)NC(=O)CNC(=O)[C@@H]1CCCN1C(=O)[C@H](Cc1ccc(O)cc1)NC(=O)[C@@H](NC(=O)[C@@H]1CCCN1C(=O)[C@H](CCC(=O)O)NC(=O)[C@H](CC(C)C)NC(=O)[C@@H]1CCCN1C(=O)[C@H](C)N)C(C)C)C(=O)N[C@@H](CCC(N)=O)C(=O)N[C@@H](CC(C)C)C(=O)N[C@@H](CC(C)C)C(=O)N[C@H](C(=O)N[C@@H](CCCNC(=N)N)C(=O)N1CCC[C@H]1C(=O)N[C@@H](CCCNC(=N)N)C(=O)N[C@@H](Cc1ccc(O)cc1)C(N)=O)[C@@H](C)O [SEQ ID NO: 18, N-epsilon13-[2-(2-{2-[2-(2-{2-[(S)-4-Carboxy-4-({trans-4-[(19-carboxynonadecanoylamino)methyl]cyclohexanecarbonyl}amino)butyrylamino]-ethoxy}ethoxy)acetylamino]ethoxy}ethoxy)acetyl][Lys13,Leu17,Gln29,Leu30]hPP(1-36)] (H-APLEPVYPGDNAK([AEEA-AEEA-γGlu-Trx-C20 diacid])PEQLAQYAADLRRYIQLLTRPRY-NH2) | > 1000 | – | –
2 | B1 | – | > 1000 | 0.8
3 | B2 | – | > 1000 | > 1000
4 | B3 | – | 92 | 18
5 | B4 | – | > 1000 | 3.2
6 | B5 | – | > 1000 | 7
7 | B6 | – | > 1000 | 1
8 | B7 | – | 130 | 7
9 | B8 | – | > 1000 | 130
10 | B9 | – | > 1000 | 2
11 | B10 | – | > 1000 | > 1000
12 | B11 | – | 73 | 7
13 | B12 | – | 54 | 18
14 | B13 | – | > 1000 | 0.9
15 | B14 | – | > 1000 | 0.4
16 | B15 | – | 63 | 65
17 | B16 | – | > 1000 | 5
18 | B17 | – | > 1000 | > 1000
19 | B18 | – | > 1000 | > 1000
20 | B19 | – | > 1000 | > 890
21 | B20 | – | > 1000 | > 1000
